Positions count from the first letter of the chain named.
Legend:
human properdin [1] = biological target: T1, human properdin (human, UniProt P27918 28-469); experiment: cell-based or functional assay
human properdin [2] = biological target: T1, human properdin; experiment: properdin ELISA
human properdin [3] = biological target: T1, human properdin; experiment: competition ELISA: varied antibody with 50 nM properdin on C3b-coated wells
human properdin [4] = biological target: T1, human properdin; experiment: properdin ELISA (FIG. 27)

T1 sequence (P27918 28-469 limits assumed): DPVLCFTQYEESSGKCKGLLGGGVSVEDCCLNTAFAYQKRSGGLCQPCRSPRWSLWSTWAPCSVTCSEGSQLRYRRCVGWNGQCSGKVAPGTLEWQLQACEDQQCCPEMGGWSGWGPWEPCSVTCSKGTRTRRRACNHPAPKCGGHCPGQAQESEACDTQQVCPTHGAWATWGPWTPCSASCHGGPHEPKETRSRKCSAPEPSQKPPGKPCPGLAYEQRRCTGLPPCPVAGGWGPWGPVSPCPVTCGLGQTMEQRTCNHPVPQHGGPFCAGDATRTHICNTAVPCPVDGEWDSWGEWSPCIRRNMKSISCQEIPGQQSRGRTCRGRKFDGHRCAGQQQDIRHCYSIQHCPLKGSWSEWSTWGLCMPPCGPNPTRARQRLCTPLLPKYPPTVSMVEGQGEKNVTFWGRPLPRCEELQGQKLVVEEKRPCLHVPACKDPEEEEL

B1: NM9401-IgG (murine anti-properdin monoclonal antibody, IgG1) (antibody, V domains shown)
VH: QVQLQQSAPELARPGASVKMSCTASGYIFTNYPIHWVKQRPGQGLEWIGFIDPGGGYDEPDERFRDRATLTADKSSSTAYMQLSSLTSEDSAIYYCARRGGGYYLDYWGQGTTLTVSS
VL: DIQMTQTTSSLSASLGDRVTISCRASQDISFFLNWYQQKPDGTVKLLIYYTSRYHSGVPSRFSGSGSGTDFSLTINNLEQEDFATYFCQHGNTLPWTFGGGTKLEIKR
erythrocyte lysis assay using rabbit erythrocytes, IC50 (human properdin [1]): 20 to 30 nM

B2: BAP010-1 (chimeric anti-properdin IgG1) (antibody, V domains shown)
VH: B1 VH
VL: DIQMTQTTSSLSASLGDRVTISCRASQDISFFLNWYQQKPDGTVKLLIYYTSRYHSGVPSRFSGSGSGTDFSLTINNLEQEDFATYFCQHGNTLPWTFGGGTKLEIK
notes: Murine variable domains (heavy chain clone mH6-3g, light chain clone mK10) fused in frame to a human IgG1 constant region and a human kappa constant region; also called chimeric anti-properdin monoclonal antibody; recombinant antibody BAP010-1
Kd (human properdin [2]): ~0.054 nM | erythrocyte lysis assay using rabbit erythrocytes, IC50 (human properdin [1]): 20 to 30 nM

B3: NM9401-Fab (Fab, V domains shown)
VH: B1 VH
VL: B1 VL
notes: Fab fragment of the murine NM9401 IgG
concentration inhibiting properdin binding to C3b (quantity not named, IC50 implied) (human properdin [3]): 72 nM | molar ratio of antibody to properdin (human properdin [3]): 1.2

B4: NM9401-F(ab′)2 (other)
VH: QVQLQQSAPELARPGASVKMSCTASGYIFTNYPIHWVKQRPGQGLEWIGFIDPGGGYDEPDERFRDRATLTADKSSSTAYMQLSSLTSEDSAIYYCARRGGGYYLDYWGQGTTLTVSSAKTT
VL: DIQMTQTTSSLSASLGDRVTISCRASQDISFFLNWYQQKPDGTVKLLIYYTSRYHSGVPSRFSGSGSGTDFSLTINNLEQEDFATYFCQHGNTLPWTFGGGTKLEIKRADAAPTVSIFPPSSEQLTSGGASVVCFLNN
notes: F(ab′)2 fragment of the murine NM9401 IgG
concentration inhibiting properdin binding to C3b (quantity not named, IC50 implied) (human properdin [3]): 29 nM | molar ratio of antibody to properdin (human properdin [3]): 0.5

B5: BAP010hum02 (humanized anti-properdin monoclonal antibody) (antibody, V domains shown)
VH: QVQLQESGPGLVKPSQTLSLTCTVSGYIFTNYPIHWVRQAPGKGLEWVSFIDPGGGYDEPDERFRDRVTISVDTSKNQFSLKLSSVTAADTAVYYCARRGGGYYLDYWGQG
VL: EIVLTQSPATLSLSPGERATLSCRASQDISFFLNWFQQRPGQSPRRLIYYTSRYHSGIPPRFSGSGYGTDFTLTINNIESEDAAYYFCQHGNTLPWTFGQG
notes: Labelled _HC and _LC; Expressed as human IgG from BioAtla's mammalian vector; also called BAP010hum02_HC
binding result (human properdin [4]): binds

B6: BAP010hum03 (humanized anti-properdin monoclonal antibody) (antibody, V domains shown)
VH: EVQLVQSGAEVKKPGESLRISCKGSGYIFTNYPIHWIRQSPSRGLEWLGFIDPGGGYDEPDERFRDRVTISADKSISTAYLQWSSLKASDTAMYYCARRGGGYYLDYWGQG
VL: DIQMTQSPSSLSASVGDRVTITCRASQDISFFLNWYQQKPGKAPKLLIYYTSRYHSGVPSRFSGSGSGTEFTLTISSLQSEDFAVYYCQHGNTLPWTFGQG
notes: Labelled _HC and _LC; Expressed as human IgG; also called BAP010hum03_HC
binding result (human properdin [4]): binds

B7: BAP010hum10 (humanized anti-properdin monoclonal antibody) (antibody, V domains shown)
VH: QVQLQESGPGLVKPSQTLSLTCTVSGYIFTNYPIHWVRQATGQGLEWMGFIDPGGGYDEPDERFRDRVTITADKSTSTAYMELSSLRSEDTAVYYCARRGGGYYLDYWGQG
VL: B6 VL with V58I, S60P, S67Y, L73F, Q79E, S80A, F83A, V85T
notes: Labelled _HC and _LC; Expressed as human IgG; also called BAP010hum10_HC
binding result (human properdin [4]): binds
